Blank lines part the entries; values can stand above or below the binder they belong to.
Assays:
Assay in all cases: cell-based or functional assay
hGH mutant Q40N (human) = hGH mutant Q40N (human) (UniProt P01241)
[1] = molecular target: Human growth hormone (human) (UniProt P01241)
hGH mutant Q141N (human) = hGH mutant Q141N (human) (UniProt P01241)
Chain of hGH mutant Q141N (human) (P01241 27-217 Q167N): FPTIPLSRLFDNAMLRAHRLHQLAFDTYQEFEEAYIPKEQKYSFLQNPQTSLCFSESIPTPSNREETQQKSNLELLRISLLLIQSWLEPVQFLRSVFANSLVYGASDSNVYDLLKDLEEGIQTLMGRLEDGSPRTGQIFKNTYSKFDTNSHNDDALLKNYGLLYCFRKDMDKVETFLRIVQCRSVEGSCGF

Chain of Human growth hormone (human) (P01241 27-217 limits assumed): as the sequence (P01241 27-217 Q167N) above, with N141Q counted along it
Chain of hGH mutant Q40N (human) (P01241 27-217 Q66N): as the sequence (P01241 27-217 Q167N) above, with Q40N, N141Q counted along it

Gln 40 vs Gln 141 (normalized), Gln 141 share (normalized ratio) (hGH mutant Q40N (human)): 79
HPLC peak area of remaining hGH-Q40N (area (arbitrary units)) (hGH mutant Q40N (human)): 519
About 50% hGH reacted at t=, enzyme 0.07 µM (min (printed in h and min)) [1]: 75
Transamination Gln 40 vs Gln 141 (Gln 40 share), CE, enzyme 0.07 µM (share of mono-transamination products) [1]: 15
Transamination Gln 40 vs Gln 141 (Gln 141 share), CE, enzyme 0.07 µM (share of mono-transamination products) [1]: 85
Gln 40 vs Gln 141 (normalized), Gln 40 share (normalized ratio) (hGH mutant Q141N (human)): 21
HPLC peak area of remaining hGH-Q141N (area (arbitrary units)) (hGH mutant Q141N (human)): 1290
B1: TGase from S. mobaraense (wild type) (enzyme)
chain: DSDDRVTPPAEPLDRMPDPYRPSYGRAETVVNNYIRKWQQVYSHRDGRKQQMTEEQREWLSYGCVGVTWVNSGQYPTNRLAFASFDEDRFKNELKNGRPRSGETRAEFEGRVAKESFDEEKGFQRAREVASVMNRALENAHDESAYLDNLKKELANGNDALRNEDARSPFYSALRNTPSFKERNGGNHDPSRMKAVIYSKHFWSGQDRSSSADKRKYGDPDAFRPAPGTGLVDMSRDRNIPRSPTSPGEGFVNFDYGWFGAQTEADADKTVWTHGNHYHAPNGSLGAMHVYESKFRNWSEGYSDFDRGAYVITFIPKSWNTAPDKVKQGWP

Gln 40 vs Gln 141 (normalized), Gln 141 share (normalized ratio) (hGH mutant Q40N (human)): 89
HPLC peak area of remaining hGH-Q40N (area (arbitrary units)) (hGH mutant Q40N (human)): 375
Gln 40 vs Gln 141 (normalized), Gln 40 share (normalized ratio) (hGH mutant Q141N (human)): 11
HPLC peak area of remaining hGH-Q141N (area (arbitrary units)) (hGH mutant Q141N (human)): 1160
B5: TGase from Streptoverticillium ladakanum (enzyme)
chain: DSDERVTPPAEPLDRMPDPYRPSYGRAETIVNNYIRKWQQVYSHRDGRKQQMTEEQREWLSYGCVGVTWVNSGQYPTNRLAFAFFDEDKYKNELKNGRPRSGETRAEFEGRVAKDSFDEAKGFQRARDVASVMNKALENAHDEGAYLDNLKKELANGNDALRNEDARSPFYSALRNTPSFKDRNGGNHDPSKMKAVIYSKHFWSGQDRSGSSDKRKYGDPEAFRPDRGTGLVDMSRDRNIPRSPTSPGESFVNFDYGWFGAQTEADADKTVWTHGNHYHAPNGSLGAMHVYESKFRNWSDGYSDFDRGAYVVTFVPKSWNTAPDKVKQGWP

Second part, the binder before the results:

B2: Y75E TGase (enzyme)
chain: DSDDRVTPPAEPLDRMPDPYRPSYGRAETVVNNYIRKWQQVYSHRDGRKQQMTEEQREWLSYGCVGVTWVNSGQEPTNRLAFASFDEDRFKNELKNGRPRSGETRAEFEGRVAKESFDEEKGFQRAREVASVMNRALENAHDESAYLDNLKKELANGNDALRNEDARSPFYSALRNTPSFKERNGGNHDPSRMKAVIYSKHFWSGQDRSSSADKRKYGDPDAFRPAPGTGLVDMSRDRNIPRSPTSPGEGFVNFDYGWFGAQTEADADKTVWTHGNHYHAPNGSLGAMHVYESKFRNWSEGYSDFDRGAYVITFIPKSWNTAPDKVKQGWP
About 50% hGH reacted at t=, enzyme 3.90 µM [1]: < 30 min
Transamination Gln 40 vs Gln 141 (Gln 40 share), CE, enzyme 3.90 µM (share of mono-transamination products) [1]: 45
Transamination Gln 40 vs Gln 141 (Gln 141 share), CE, enzyme 3.90 µM (share of mono-transamination products) [1]: 55

B3: Y302R TGase (enzyme)
chain: DSDDRVTPPAEPLDRMPDPYRPSYGRAETVVNNYIRKWQQVYSHRDGRKQQMTEEQREWLSYGCVGVTWVNSGQYPTNRLAFASFDEDRFKNELKNGRPRSGETRAEFEGRVAKESFDEEKGFQRAREVASVMNRALENAHDESAYLDNLKKELANGNDALRNEDARSPFYSALRNTPSFKERNGGNHDPSRMKAVIYSKHFWSGQDRSSSADKRKYGDPDAFRPAPGTGLVDMSRDRNIPRSPTSPGEGFVNFDYGWFGAQTEADADKTVWTHGNHYHAPNGSLGAMHVYESKFRNWSEGRSDFDRGAYVITFIPKSWNTAPDKVKQGWP
About 50% hGH reacted at t=, enzyme 0.39 µM [1]: 30 min
Transamination Gln 40 vs Gln 141 (Gln 40 share), CE, enzyme 0.39 µM (share of mono-transamination products) [1]: 30
Transamination Gln 40 vs Gln 141 (Gln 141 share), CE, enzyme 0.39 µM (share of mono-transamination products) [1]: 70

B4: Y75E, Y302R TGase (enzyme)
chain: DSDDRVTPPAEPLDRMPDPYRPSYGRAETVVNNYIRKWQQVYSHRDGRKQQMTEEQREWLSYGCVGVTWVNSGQEPTNRLAFASFDEDRFKNELKNGRPRSGETRAEFEGRVAKESFDEEKGFQRAREVASVMNRALENAHDESAYLDNLKKELANGNDALRNEDARSPFYSALRNTPSFKERNGGNHDPSRMKAVIYSKHFWSGQDRSSSADKRKYGDPDAFRPAPGTGLVDMSRDRNIPRSPTSPGEGFVNFDYGWFGAQTEADADKTVWTHGNHYHAPNGSLGAMHVYESKFRNWSEGRSDFDRGAYVITFIPKSWNTAPDKVKQGWP
About 50% hGH reacted at t=, enzyme 7.20 µM (min (printed in h and min)) [1]: 90
Transamination Gln 40 vs Gln 141 (Gln 40 share), CE, enzyme 7.20 µM (share of mono-transamination products) [1]: 65
Transamination Gln 40 vs Gln 141 (Gln 141 share), CE, enzyme 7.20 µM (share of mono-transamination products) [1]: 35
